Experimental data from patent publication US20060147453A1.

Target: decorin
Assay: cell-based or functional assay

Full length human WISP-1-Fc fusion protein (baculovirus, Sf9 insect cells) (from UniProt O95388 23-367)
HAS2 expression in NRK cells plated on the coated surface (real time RT-PCR): 3 fold
